Experimental data as given in patent US5786324A, “Synthetic peptides with bactericidal activity and endotoxin neutralizing activity for gram negative bacteria and methods for their use” (priority 1994, dated 1998).
“Also recorded” adds a separate entry of the source. Where two headings read alike, the source gives them in different places.

How the values were obtained:
[1] = Storage stability of bactericidal activity of B/PI in elution buffer; type: physicochemical; settings: 0.05M glycine buffer, pH 2.5, with 0.5M NaCl; 4° C. and -70° C.; prolonged periods
Experimental: Recombinant products can be purified from infected cells by immunoaffinity chromatography with the appropriate immobilized rabbit anti-peptide antibody or a mouse monoclonal antibody to B/PI. B/PI was reproducibly purified by application of partially purified samples of 2 mg protein to a 1.5×180 cm Toyopearl HW55S (Toso Haas) column or 200 mg protein to a TSX2000 HPLC (Beckman) column. The elution buffer for both columns is 0.05M glycine buffer, pH 2.5, with 0.5M NaCl. Recovery of B/PI protein was excellent and 100% of bactericidal activity is retained. The bactericidal activity of B/PI in this buffer was stable at 4° C. and at -70° C. for prolonged periods. The columns resolve protein standards over the range of 2-70 kD and can be used for all steps separation of fragments of B/PI by molecular weight. Reverse phase HPLC can be used if necessary.

[2] = tested on: Staphylococcus aureus 502A; type: cell-based; settings: S. aureus; pH 7.0; 4.1 × 10^-9 M
Experimental: (§1) The synthetically produced peptides were assayed for bactericidal activity against Pseudomonas aeruginosa, type 1, P. cepacia ATCC 25608, E. coli B, and Staphylococcus aureus 502A by standard methods.
(§2) Pseudomonas aeruginosa type 1 is a clinical isolate maintained in the laboratory since 1972. The isolate remains a smooth strain and was serotyped by the scheme of Homma. Homma, Jpn. J. Exp. Med., 46:329 (1976). A rough strain E. coli B and S. aureus 502A were obtained from Paul Quie, University of Minnesota. The characteristics of the S. aureus strain have been described in Shinefield et al., Amer. J. Dis. Chil., 105:646 (1963). Pseudomonas cepacia ATCC 25608 was purchased from the American Type Culture Collection in 1980. S. aureus and E. coli were maintained on nutrient agar plates and the Pseudomonas strains were maintained on blood agar plates.
(§3) Pyrogen-free solutions were used throughout this assay and all methods which follow. Log phase bacteria were prepared from a culture in brain heart infusion broth as previously described except that bacteria were washed and resuspended in saline with adjustment to an optical density at 650 nm which would yield 3×10^8 CFU/ml. Bacteria were then diluted 1:10 in 0.08M citrate phosphate buffer, pH 5.6 or pH 7.0, for use in the assay. S. aureus rapidly lost viability in the pH 5.6 buffer and was studied only at pH 7.0. Bactericidal activity was determined by dose response and where an LD50 is indicated, it was determined by linear regression.

E. coli B = assay: Bactericidal assay, E. coli B; type: cell-based
Experimental: as §1, §2, §3

P. cepacia ATCC 25608 = assay: Bactericidal assay, P. cepacia; type: cell-based, Pseudomonas cepacia; settings: for % Killing of 5 × 10^6 Bacteria: P. cepacia, 4.1 × 10^-9 M
Experimental: as §1, §2, §3

E. coli 055: B5 LPS = assay: Limulus amoebocyte lysate assay, neutralization of endotoxin; type: biochemical
Source text: The peptide selected can also have endotoxin neutralizing activity. […] Endotoxin neutralizing activity can also be measured by calculating an inhibitory dose 50 […] using standard does response methods. An inhibitory dose 50 is that amount of peptide that can inhibit 50% of the activity of endotoxin. Endotoxin activity can also be measured by determining the amount of release of tumor necrosis factor alpha (TNFα) from a macrophage cell line or by evaluating the symptoms of shock in animals. Peptides preferably neutralized endotoxin at a molar concentration of about 1×10^-4 M to about 10^-8 M , more preferably about 10^-5 M to about 10^-6 M .
The ability of synthetic peptides to neutralize endotoxin was detected with the E-TOXATE kit manufactured by Sigma Chemicals, St. Louis, Mo. […] Peptide was incubated with LPS at room temperature for 10 minutes in 100 μl of a 1:2 dilution of pyrogen-free saline, pH 6.4. The reaction was started by addition of 100 μl of amoebocyte lysate and the final volume was 200 μl.
^a The dose of peptide required to inhibit clotting of LAL by 100%.
Each tube contained 0.04 endotoxin units of E. coli LPS.

[3] = tested on: Pseudomonas aeruginosa type 1; type: cell-based; settings: for % Killing of 5 × 10^6 Bacteria: P. aeruginosa
Experimental: Bactericidal activity can be evaluated against a variety of bacteria such as Pseudomonas spp including aeruginosa and P. cepacia, E. coli B, and Staphylococcus aureus. The preferred organism is P. aeruginosa. Bactericidal activity is determined by identifying the effective dose for killing as the molar concentration of the peptide which results in at least a 60% killing of the bacteria, as determined by standard methods. Preferably, the peptide has an effective dose at a concentration of about 1×10^-4 M to about 1×10^-10 M, and more preferably 1×10^-7 M to 1×10^-9M . […] The effective dose for bactericidal activity of B/PI is seen at about […] . Bactericidal activity can also be determined by calculating a lethal dose 50 (LD50) using standard methods. The LD50 is that amount of peptide or protein that kills 50% of the bacteria when measured using standard dose response methods. A bactericidal peptide preferably has an LD50 of about 10^-4 M to about 10^-9 M , more preferably about 10^-7 to 10^-9 M .
as §1, §2, §3

[4] = Table 7, dose required to inhibit clotting of LAL by 100%, 0.04 endotoxin units of E. coli LPS

B1: B/PI: 55 kD bactericidal/permeability increasing protein purified from human neutrophil granules (protein)
chain: MRENMARGPCNAPRWVSLMVLVAIGTAVTAAVNPGVVVRISQKGLDYASQQGTAALQKELKRIKIPDYSDSFKIKHLGKGHYSFYSMDIREFQLPSSQISMVPNVGLKFSISNANIKISGKWKAQKRFLKMSGNFDLSIEGMSISADLKLGSNPTSGKPTITCSSCSSHINSVHVHISKSKVGWLIQLFHKKIESALRNKMNSQVCEKVTNSVSSKLQPYFQTLPVMTKIDSVAGINYGLVAPPATTAETLDVQMKGEFYSENHHNPPPFAPPVMEFPAAHDRMVYLGLSDYFFNTAGLVYQEAGVLKMTLRDDMIPKESKFRLTTKFFGTFLPEVAKKFPNMKIQIHVSASTPPHLSVQPTGLTFYPAVDVQAFAVLPNSSLASLFLIGMHTTGSMEVSAESNRLVGELRLDRLLLQLKHSNIGPFPVELLQDIMNYIVPILVLPRVNEKLQKGFPLPTPARVQLYNVVLQPHQNFLLFGADVVYK
- stability of bactericidal activity on storage [1]: stable
- % Killing of 5 × 10^6 Bacteria [2]: 0%
- % Killing of 5 × 10^6 Bacteria (E. coli B; E. coli B, pH 5.6, 5.5 × 10^-9 M): 71%
- % Killing of 5 × 10^6 Bacteria (E. coli B; E. coli, pH 5.6, 4.1 × 10^-9 M): 35 ± 4%
- % Killing of 5 × 10^6 Bacteria (E. coli B; E. coli, pH 7.0, 4.1 × 10^-9 M): 25 ± 5%
- % Killing of 5 × 10^6 Bacteria (P. cepacia ATCC 25608; pH 5.6): 0%
- % Killing of 5 × 10^6 Bacteria (P. cepacia ATCC 25608; pH 7.0): 0%
- killing of P. cepacia (in words) (P. cepacia ATCC 25608; concentration 20fold higher: 9.1×10^-8 M, approximately 5 μg protein/ml): not killed; also recorded: resisted bactericidal activity
- peptide concentration which neutralized endotoxin (100% inhibition of LPS-induced gelation) (E. coli 055: B5 LPS; 0.04 endotoxin units of E. coli 055: B5 LPS): about 10^-8 M
- Effective Dose (μg/0.2 ml) (E. coli 055: B5 LPS; [4]): 0.165 μg/0.2 ml
- Effective Dose M (× 10^-4) (E. coli 055: B5 LPS; [4]): 0.00015 M (× 10^-4)
- LD50 for P. aeruginosa ([3]; 5×10^6 CFU, pH 5.6, dose response, linear regression): 3.4 nM
- % Killing of 5 × 10^6 Bacteria ([3]; pH 5.6, 4.1 × 10^-9 M): 50 ± 5%
- % Killing of 5 × 10^6 Bacteria ([3]; pH 5.6, 5.5 × 10^-9 M): 87 ± 8%
- % Killing of 5 × 10^6 Bacteria ([3]; pH 7.0, 4.1 × 10^-9 M): 35 ± 3%
